Test results: publication PMC8339797 (2021)
Numbered stars: 1 amine (or outer) side, 2 acyl side, 3 side chain; on linkers, the order of the positions; unused ones are H or OH. Square brackets hold non-standard residues; d marks the D form. Side chains are listed from the residue outwards. dextran = polysaccharide of α-(1–6)-linked D-glucose units with low branching; Propanoyl(3-triazol-4-yl) = O=C(CCc1cn([*:1])nn1)[*:2]

Target: T1, RGD-decorated Fc-dextran-MMAE construct 20 (cyclo[RGDfK] multimer) (also: multivalent on dextran conjugated to aglycosylated human Fc N297A with MMAE)
T1 chain: cyclo(RGD[dF]K([Propanoyl(3-triazol-4-yl)-dextran]))
Assay: flow cytometry cell binding (apparent KD)

B1: integrin alpha-v beta-3 (on U87MG cells) (protein)
chain 1: FNLDVDSPAEYSGPEGSYFGFAVDFFVPSASSRMFLLVGAPKANTTQPGIVEGGQVLKCDWSSTRRCQPIEFDATGNRDYAKDDPLEFKSHQWFGASVRSKQDKILACAPLYHWRTEMKQEREPVGTCFLQDGTKTVEYAPCRSQDIDADGQGFCQGGFSIDFTKADRVLLGGPGSFYWQGQLISDQVAEIVSKYDPNVYSIKYNNQLATRTAQAIFDDSYLGYSVAVGDFNGDGIDDFVSGVPRAARTLGMVYIYDGKNMSSLYNFTGEQMAAYFGFSVAATDINGDDYADVFIGAPLFMDRGSDGKLQEVGQVSVSLQRASGDFQTTKLNGFEVFARFGSAIAPLGDLDQDGFNDIAIAAPYGGEDKKGIVYIFNGRSTGLNAVPSQILEGQWAARSMPPSFGYSMKGATDIDKNGYPDLIVGAFGVDRAILYRARPVITVNAGLEVYPSILNQDNKTCSLPGTALKVSCFNVRFCLKADGKGVLPRKLNFQVELLLDKLKQKGAIRRALFLYSRSPSHSKNMTISRGGLMQCEELIAYLRDESEFRDKLTPITIFMEYRLDYRTAADTTGLQPILNQFTPANISRQAHILLDCGEDNVCKPKLEVSVDSDQKKIYIGDDNPLTLIVKAQNQGEGAYEAELIVSIPLQADFIGVVRNNEALARLSCAFKTENQTRQVVCDLGNPMKAGTQLLAGLRFSVHQQSEMDTSVKFDLQIQSSNLFDKVSPVVSHKVDLAVLAAVEIRGVSSPDHVFLPIPNWEHKENPETEEDVGPVVQHIYELRNNGPSSFSKAMLHLQWPYKYNNNTLLYILHYDIDGPMNCTSDMEINPLRIKISSLQTTEKNDTVAGQGERDHLITKRDLALSEGDIHTLGCGVAQCLKIVCQVGRLDRGKSAILYVKSLLWTETFMNKENQNHSYSLKSSASFNVIEFPYKNLPIEDITNSTLVTTNVTWGIQPAPMPV
chain 2: GPNICTTRGVSSCQQCLAVSPMCAWCSDEALPLGSPRCDLKENLLKDNCAPESIEFPVSEARVLEDRPLSDKGSGDSSQVTQVSPQRIALRLRPDDSKNFSIQVRQVEDYPVDIYYLMDLSYSMKDDLWSIQNLGTKLATQMRKLTSNLRIGFGAFVDKPVSPYMYISPPEALENPCYDMKTTCLPMFGYKHVLTLTDQVTRFNEEVKKQSVSRNRDAPEGGFDAIMQATVCDEKIGWRNDASHLLVFTTDAKTHIALDGRLAGIVQPNDGQCHVGSDNHYSASTTMDYPSLGLMTEKLSQKNINLIFAVTENVVNLYQNYSELIPGTTVGVLSMDSSNVLQLIVDAYGKIRSKVELEVRDLPEELSLSFNATCLNNEVIPGLKSCMGLKIGDTVSFSIEAKVRGCPQEKEKSFTIKPVGFKDSLIVQVTFDCDCACQAQAEPNSHRCNNGNGTFECGVCRCGPGWLGSQCECSEEDYRPSQQDECSPREGQPVCSQRGECLCGQCVCHSSDFGKITGKYCECDDFSCVRYKGEMCSGHGQCSCGDCLCDSDWTGYYCNCTTRTDTCMSSNGLLCSGRGKCECGSCVCIQPGSYGDTCEKCPTCPDACTFKKECVECKKFDRGALHDENTCNRYCRDEIESVKELKDTGKDAVNCTYKNEDDCVVRFQYYEDSSGKSILYVVEEPECPKGPD
Q: B1 was tested. Which Kd did it give?
A: The Kd was 33 nM.
